According to US20190338048A1:
Where two headings read alike, the source gives them in different places.

Columns and labels:
[1] = target: CAT-2200 lambda light chain T131K_V133S; test: LCCA, SPR
[2] = target: CAT-2200 lambda light chain T131K_V133S; test: LCCA, SPR; remark: listed apart in the source
[3] = target: CAT-2200 lambda light chain E124Q_T131K; test: LCCA, SPR
[4] = target: CAT-2200 lambda light chain E124Q_T131R; test: LCCA, SPR
[5] = target: CAT-2200 lambda light chain E124Q_T131K; test: LCCA, SPR; remark: listed apart in the source
[6] = target: CAT-2200 lambda light chain E124Q_T131R; test: LCCA, SPR; remark: listed apart in the source
[7] = target: CAT-2200 lambda light chain E124Q_T131R; test: LCCA, SPR; remark: listed apart in the source
[8] = target: CAT-2200 lambda light chain V133D_Y178T; test: LCCA, SPR
[9] = target: CAT-2200 lambda light chain V133D_Y178T; test: LCCA, SPR; remark: listed apart in the source
[10] = target: CAT-2200 lambda light chain T131S_V133D_Y178T; test: LCCA, SPR
[11] = target: CAT-2200 lambda light chain V133D_Y178T; test: LCCA, SPR; remark: listed apart in the source
[12] = target: Pertuzumab kappa light chain S176K_T178K; test: LCCA, SPR
[13] = target: Pertuzumab kappa light chain S176K_T178R; test: LCCA, SPR
[14] = target: Pertuzumab kappa light chain S131K_V133G_S176R (L2), HA-tagged; test: LCCA, SPR of light-chain tags
[15] = target: Pertuzumab kappa light chain S131R_V133G_S176R (L2), HA-tagged; test: LCCA, SPR of light-chain tags
[16] = target: Pertuzumab kappa light chain S131K_V133G_S176R (L2), HA-tagged; test: LCCA, SPR of light-chain tags; remark: listed apart in the source
[17] = target: Pertuzumab kappa light chain S131R_V133G_S176R (L2), HA-tagged; test: LCCA, SPR of light-chain tags; remark: listed apart in the source
[18] = target: Pertuzumab kappa light chain S131K_V133G_S176R (L2), HA-tagged; test: LCCA, SPR of light-chain tags; remark: listed apart in the source
[19] = target: Pertuzumab kappa light chain S131R_V133G_S176R (L2), HA-tagged; test: LCCA, SPR of light-chain tags; remark: listed apart in the source
[20] = target: CAT-2200 lambda light chain S176E_Y178E (L1), FLAG-tagged; test: LCCA, SPR of light-chain tags
[21] = target: CAT-2200 lambda light chain V133L_S176D_Y178E (L1), FLAG-tagged; test: LCCA, SPR of light-chain tags
[22] = target: Pertuzumab kappa light chain S131K_V133G_S176R_T178A (L2), HA-tagged; test: LCCA, SPR of light-chain tags
[23] = target: Pertuzumab kappa light chain S131R_V133G_S176R_T178A (L2), HA-tagged; test: LCCA, SPR of light-chain tags
[24] = target: Pertuzumab kappa light chain S131K_V133G_S176R_T178A (L2), HA-tagged; test: LCCA, SPR of light-chain tags; remark: listed apart in the source
[25] = target: Pertuzumab kappa light chain S131R_V133G_S176R_T178A (L2), HA-tagged; test: LCCA, SPR of light-chain tags; remark: listed apart in the source
[26] = target: CAT-2200 lambda light chain S176E_Y178E (L1), FLAG-tagged; test: LCCA, SPR of light-chain tags; remark: listed apart in the source
[27] = target: CAT-2200 lambda light chain V133L_S176D_Y178E (L1), FLAG-tagged; test: LCCA, SPR of light-chain tags; remark: listed apart in the source
[28] = target: Pertuzumab kappa light chain S131R_V133T_L135K_T178S; test: LCCA, SPR
[29] = target: Pertuzumab kappa light chain V133G_S176D_T178E; test: LCCA, SPR
[30] = target: Pertuzumab kappa light chain V133G_S176D_T180E; test: LCCA, SPR
[31] = target: Pertuzumab kappa light chain V133G_S176D_T178E; test: LCCA, SPR; remark: listed apart in the source
[32] = target: Pertuzumab kappa light chain V133G_S176D_T180E; test: LCCA, SPR; remark: listed apart in the source
[33] = target: Pertuzumab kappa light chain V133G_L135W_S176D_T180E; test: LCCA, SPR tag read-out
[34] = target: Pertuzumab kappa light chain V133G_L135W_S176D_T180E; test: LCCA, SPR tag read-out; remark: listed apart in the source
[35] = target: CAT-2200 lambda light chain K129T_V133D; test: LCCA, SPR
[36] = target: Pertuzumab kappa light chain Q124K_V133A_T178R; test: LCCA, SPR
[37] = target: Pertuzumab kappa light chain Q124R_Q160K_T178R (L2), HA-tagged; test: LCCA, SPR of light-chain tags
[38] = target: Pertuzumab kappa light chain Q124R_T178R (L2), HA-tagged; test: LCCA, SPR of light-chain tags
[39] = target: Pertuzumab kappa light chain Q124R_Q160K_T178R (L2), HA-tagged; test: LCCA, SPR of light-chain tags; remark: listed apart in the source
[40] = target: Pertuzumab kappa light chain Q124R_T178R (L2), HA-tagged; test: LCCA, SPR of light-chain tags; remark: listed apart in the source
[41] = target: Pertuzumab kappa light chain V133D_Q160E; test: LCCA, SPR
[42] = target: Pertuzumab kappa light chain V133D; test: LCCA, SPR
[43] = target: Pertuzumab kappa light chain Q124E_V133D_L135W; test: LCCA, SPR tag read-out
[44] = target: CAT-2200 lambda light chain E124Q_T131K_V133S; test: LCCA, SPR tag read-out
[45] = target: Pertuzumab kappa light chain Q124E_V133D; test: LCCA, SPR
[46] = target: Pertuzumab kappa light chain Q124E_V133D; test: LCCA, SPR; remark: listed apart in the source
[47] = target: Pertuzumab kappa light chain S131K_S176A_T178S; test: LCCA, SPR
[48] = target: Pertuzumab kappa light chain S131K_T178S; test: LCCA, SPR
[49] = target: Pertuzumab kappa light chain S131K_S176A_T178S; test: LCCA, SPR; remark: listed apart in the source
[50] = target: Pertuzumab kappa light chain S131K_T178S; test: LCCA, SPR; remark: listed apart in the source
[51] = target: CAT-2200 lambda light chain S176A_Y178W (L1), FLAG-tagged; test: LCCA, SPR of light-chain tags
[52] = target: Pertuzumab kappa light chain S176A_T178A (L2), HA-tagged; test: LCCA, SPR of light-chain tags

With “CAT-2200 Fab heavy chain L143D_K145T_Q179E” the H1L1:H1L2 normalized median scalar value ln(r1/f1) [1] was 0.41 and the H1L1:H1L2 normalized median scalar value ln(r1/f1) [2] was 0.58.
In the case of “CAT-2200 Fab heavy chain L143E_K145T_Q179E”, the H1L1:H1L2 normalized median scalar value ln(r1/f1) [3] was -0.04, the H1L1:H1L2 normalized median scalar value ln(r1/f1) [4] was 0.28 and the H1L1:H1L2 normalized median scalar value ln(r1/f1) [5] was 3.04. For the same substance, the H1L1:H1L2 normalized median scalar value ln(r1/f1) [6] was 2.87 and the H1L1:H1L2 normalized median scalar value ln(r1/f1) [7] was 1.65.
CAT-2200 Fab heavy chain S186K_S188T was tested, and the H1L1:H1L2 normalized median scalar value ln(r1/f1) [8] was 0.91, the H1L1:H1L2 normalized median scalar value ln(r1/f1) [9] was 1.84 and the H1L1:H1L2 normalized median scalar value ln(r1/f1) [10] was -0.34. It also gave an H1L1:H1L2 normalized median scalar value ln(r1/f1) [11] of 0.54.
In the case of “Pertuzumab Fab heavy chain K145T_V177D_S188D”, the H2L2:H2L1 normalized median ratio [8] was 16%, the H2L2:H2L1 normalized median ratio [12] was 84% and the H2L2:H2L1 normalized median scalar value ln(r1/f1) [12] was 1.68. For the same substance, the H2L2:H2L1 normalized median scalar value ln(r1/f1) [13] was 1.5.
“Pertuzumab Fab heavy chain L124E_K145T_Q179E (H2)” gave an H2L2:H2L1 normalized median scalar value ln(r1/f1) [14] of 2.21, an H2L2:H2L1 normalized median scalar value ln(r1/f1) [15] of 2.51 and an H2L2:H2L1 normalized median scalar value ln(r1/f1) [16] of 2.94. It also gave an H2L2:H2L1 normalized median scalar value ln(r1/f1) [17] of 2.85, an H2L2:H2L1 normalized median scalar value ln(r1/f1) [18] of 2.41 and an H2L2:H2L1 normalized median scalar value ln(r1/f1) [19] of 2.42.
“Pertuzumab Fab heavy chain L124E_K145T_Q179E_S188W (H2)” gave an H2L2:H2L1 normalized median ratio (H2L1 share) [20] of 15%, an H2L2:H2L1 normalized median ratio (H2L1 share) [21] of 12% and an H2L2:H2L1 normalized median ratio, H2L2 share [22] of 85%. The H2L2:H2L1 normalized median scalar value ln(r1/f1) [22] was 1.77, the H2L2:H2L1 normalized median ratio, H2L2 share [23] was 89% and the H2L2:H2L1 normalized median scalar value ln(r1/f1) [23] was 2.13. It also gave an H2L2:H2L1 normalized median ratio, H2L2 share [24] of 88%, an H2L2:H2L1 normalized median scalar value ln(r1/f1) [24] of 1.98 and an H2L2:H2L1 normalized median ratio, H2L2 share [25] of 92%. For the same substance, the H2L2:H2L1 normalized median scalar value ln(r1/f1) [25] was 2.4, the H2L2:H2L1 normalized median ratio (H2L1 share) [26] was 11% and the H2L2:H2L1 normalized median ratio (H2L1 share) [27] was 8%.
“Pertuzumab Fab heavy chain L124E_L143E_K145T” showed an H2L2:H2L1 normalized median scalar value ln(r1/f1) [28] of 0.62.
Pertuzumab Fab heavy chain L124R_Q179K showed an H2L2:H2L1 normalized median scalar value ln(r1/f1) [29] of 0.69, an H2L2:H2L1 normalized median ratio [30] of 73% and an H2L2:H2L1 normalized median scalar value ln(r1/f1) [30] of 0.97. For the same substance, the H2L2:H2L1 normalized median ratio [3] was 28%, the H2L2:H2L1 normalized median ratio [4] was 27% and the H2L2:H2L1 normalized median scalar value ln(r1/f1) [31] was 0.77. It also gave an H2L2:H2L1 normalized median ratio [32] of 72%, an H2L2:H2L1 normalized median scalar value ln(r1/f1) [32] of 0.95 and an H2L2:H2L1 normalized median ratio [6] of 33%. The H2L2:H2L1 median scalar value [33] was -0.52 ln(ratio) and the H2L2:H2L1 median scalar value [34] was -0.41 ln(ratio).
In the case of “Pertuzumab Fab heavy chain L124W_L143E_K145T_Q179E”, the H2L2:H2L1 normalized median ratio [35] was 8%, the H2L2:H2L1 normalized median ratio [36] was 92% and the H2L2:H2L1 normalized median scalar value ln(r1/f1) [36] was 2.51.
With “Pertuzumab Fab heavy chain L143E_K145T_Q179E (H2)” the H2L2:H2L1 normalized median scalar value ln(r1/f1) [37] was 2.62, the H2L2:H2L1 normalized median scalar value ln(r1/f1) [38] was 2.22 and the H2L2:H2L1 normalized median scalar value ln(r1/f1) [39] was 3.21. For the same substance, the H2L2:H2L1 normalized median scalar value ln(r1/f1) [40] was 3.16.
In the case of Pertuzumab Fab heavy chain L143I_S186K, the H2L2:H2L1 normalized median scalar value ln(r1/f1) [41] was 1.5, the H2L2:H2L1 normalized median ratio [42] was 72% and the H2L2:H2L1 normalized median scalar value ln(r1/f1) [42] was 0.92. The H2L2:H2L1 normalized median ratio [1] was 28%, the H2L2:H2L1 median scalar value [43] was 1.69 ln(ratio) and the H2L2:H2L1 normalized median ratio [43] was 84%. It also gave an H2L2:H2L1 normalized median ratio [44] of 16%.
Pertuzumab Fab heavy chain L143K gave an H2L2:H2L1 normalized median ratio [45] of 91%, an H2L2:H2L1 normalized median scalar value ln(r1/f1) [45] of 2.3 and an H2L2:H2L1 normalized median ratio [3] of 8%. The H2L2:H2L1 normalized median ratio [4] was 9%, the H2L2:H2L1 normalized median ratio [46] was 92% and the H2L2:H2L1 normalized median scalar value ln(r1/f1) [46] was 2.48.
Pertuzumab Fab heavy chain L143T_S188D gave an H2L2:H2L1 normalized median scalar value ln(r1/f1) [47] of 1.51, an H2L2:H2L1 normalized median scalar value ln(r1/f1) [48] of 0.84 and an H2L2:H2L1 normalized median ratio [49] of 54%. For the same substance, the H2L2:H2L1 normalized median scalar value ln(r1/f1) [49] was 0.15, the H2L2:H2L1 normalized median scalar value ln(r1/f1) [50] was -0.25 and the H2L2:H2L1 normalized median ratio [11] was 46%.
Substance “Pertuzumab Fab heavy chain S186L_S188W (H2)” has an H2L2:H2L1 normalized median ratio (H2L1 share) [51] of 33%, an H2L2:H2L1 normalized median ratio, H2L2 share [52] of 67% and an H2L2:H2L1 normalized median scalar value ln(r1/f1) [52] of 0.7.
